Experimental data taken from patent US20100285131A1 (Amgen, published 2010).

B1: FGF21 truncation mutant 8-181 (ligand)
chain: PLLQFGGQVRQRYLYTDDAQQTEAHLEIREDGTVGGAADQSPESLLQLKALKPGVIQILGVKTSRFLCQRPDGALYGSLHFDPEACSFRELLLEDGYNVYQSEAHGLPLHLPGNKSPHRDPAPRGPARFLPLPGLPPAPPEPPGILAPQPPDVGSSDPLSMVGPSQGRSPSYAS
B2: FGF21 truncation mutant 1-173 (ligand)
chain: HPIPDSSPLLQFGGQVRQRYLYTDDAQQTEAHLEIREDGTVGGAADQSPESLLQLKALKPGVIQILGVKTSRFLCQRPDGALYGSLHFDPEACSFRELLLEDGYNVYQSEAHGLPLHLPGNKSPHRDPAPRGPARFLPLPGLPPAPPEPPGILAPQPPDVGSSDPLSMVGPSQ
B3: FGF21 truncation mutant 2-181 (ligand)
chain: PIPDSSPLLQFGGQVRQRYLYTDDAQQTEAHLEIREDGTVGGAADQSPESLLQLKALKPGVIQILGVKTSRFLCQRPDGALYGSLHFDPEACSFRELLLEDGYNVYQSEAHGLPLHLPGNKSPHRDPAPRGPARFLPLPGLPPAPPEPPGILAPQPPDVGSSDPLSMVGPSQGRSPSYAS
B4: FGF21 truncation mutant 1-177 (ligand)
chain: HPIPDSSPLLQFGGQVRQRYLYTDDAQQTEAHLEIREDGTVGGAADQSPESLLQLKALKPGVIQILGVKTSRFLCQRPDGALYGSLHFDPEACSFRELLLEDGYNVYQSEAHGLPLHLPGNKSPHRDPAPRGPARFLPLPGLPPAPPEPPGILAPQPPDVGSSDPLSMVGPSQGRSP
B5: FGF21 truncation mutant 1-169 (ligand)
chain: HPIPDSSPLLQFGGQVRQRYLYTDDAQQTEAHLEIREDGTVGGAADQSPESLLQLKALKPGVIQILGVKTSRFLCQRPDGALYGSLHFDPEACSFRELLLEDGYNVYQSEAHGLPLHLPGNKSPHRDPAPRGPARFLPLPGLPPAPPEPPGILAPQPPDVGSSDPLSMV
B6: FGF21 truncation mutant 9-181 (ligand)
chain: LLQFGGQVRQRYLYTDDAQQTEAHLEIREDGTVGGAADQSPESLLQLKALKPGVIQILGVKTSRFLCQRPDGALYGSLHFDPEACSFRELLLEDGYNVYQSEAHGLPLHLPGNKSPHRDPAPRGPARFLPLPGLPPAPPEPPGILAPQPPDVGSSDPLSMVGPSQGRSPSYAS
B7: FGF21 truncation mutant 1-180 (ligand)
chain: HPIPDSSPLLQFGGQVRQRYLYTDDAQQTEAHLEIREDGTVGGAADQSPESLLQLKALKPGVIQILGVKTSRFLCQRPDGALYGSLHFDPEACSFRELLLEDGYNVYQSEAHGLPLHLPGNKSPHRDPAPRGPARFLPLPGLPPAPPEPPGILAPQPPDVGSSDPLSMVGPSQGRSPSYA
B8: FGF21 truncation mutant 1-171 (ligand)
chain: HPIPDSSPLLQFGGQVRQRYLYTDDAQQTEAHLEIREDGTVGGAADQSPESLLQLKALKPGVIQILGVKTSRFLCQRPDGALYGSLHFDPEACSFRELLLEDGYNVYQSEAHGLPLHLPGNKSPHRDPAPRGPARFLPLPGLPPAPPEPPGILAPQPPDVGSSDPLSMVGP
B9: FGF21 truncation mutant 1-166 (ligand)
chain: HPIPDSSPLLQFGGQVRQRYLYTDDAQQTEAHLEIREDGTVGGAADQSPESLLQLKALKPGVIQILGVKTSRFLCQRPDGALYGSLHFDPEACSFRELLLEDGYNVYQSEAHGLPLHLPGNKSPHRDPAPRGPARFLPLPGLPPAPPEPPGILAPQPPDVGSSDPL
B10: FGF21 truncation mutant 5-181 (ligand)
chain: DSSPLLQFGGQVRQRYLYTDDAQQTEAHLEIREDGTVGGAADQSPESLLQLKALKPGVIQILGVKTSRFLCQRPDGALYGSLHFDPEACSFRELLLEDGYNVYQSEAHGLPLHLPGNKSPHRDPAPRGPARFLPLPGLPPAPPEPPGILAPQPPDVGSSDPLSMVGPSQGRSPSYAS
B11: FGF21 truncation mutant 7-181 (ligand)
chain: SPLLQFGGQVRQRYLYTDDAQQTEAHLEIREDGTVGGAADQSPESLLQLKALKPGVIQILGVKTSRFLCQRPDGALYGSLHFDPEACSFRELLLEDGYNVYQSEAHGLPLHLPGNKSPHRDPAPRGPARFLPLPGLPPAPPEPPGILAPQPPDVGSSDPLSMVGPSQGRSPSYAS
B12: FGF21 truncation mutant 1-176 (ligand)
chain: HPIPDSSPLLQFGGQVRQRYLYTDDAQQTEAHLEIREDGTVGGAADQSPESLLQLKALKPGVIQILGVKTSRFLCQRPDGALYGSLHFDPEACSFRELLLEDGYNVYQSEAHGLPLHLPGNKSPHRDPAPRGPARFLPLPGLPPAPPEPPGILAPQPPDVGSSDPLSMVGPSQGRS
B13: FGF21 truncation mutant 3-181 (ligand)
chain: IPDSSPLLQFGGQVRQRYLYTDDAQQTEAHLEIREDGTVGGAADQSPESLLQLKALKPGVIQILGVKTSRFLCQRPDGALYGSLHFDPEACSFRELLLEDGYNVYQSEAHGLPLHLPGNKSPHRDPAPRGPARFLPLPGLPPAPPEPPGILAPQPPDVGSSDPLSMVGPSQGRSPSYAS
B14: FGF21 truncation mutant 1-165 (ligand)
chain: HPIPDSSPLLQFGGQVRQRYLYTDDAQQTEAHLEIREDGTVGGAADQSPESLLQLKALKPGVIQILGVKTSRFLCQRPDGALYGSLHFDPEACSFRELLLEDGYNVYQSEAHGLPLHLPGNKSPHRDPAPRGPARFLPLPGLPPAPPEPPGILAPQPPDVGSSDP
B15: FGF21 truncation mutant 4-181 (ligand)
chain: PDSSPLLQFGGQVRQRYLYTDDAQQTEAHLEIREDGTVGGAADQSPESLLQLKALKPGVIQILGVKTSRFLCQRPDGALYGSLHFDPEACSFRELLLEDGYNVYQSEAHGLPLHLPGNKSPHRDPAPRGPARFLPLPGLPPAPPEPPGILAPQPPDVGSSDPLSMVGPSQGRSPSYAS
B16: FGF21 truncation mutant 1-172 (ligand)
chain: HPIPDSSPLLQFGGQVRQRYLYTDDAQQTEAHLEIREDGTVGGAADQSPESLLQLKALKPGVIQILGVKTSRFLCQRPDGALYGSLHFDPEACSFRELLLEDGYNVYQSEAHGLPLHLPGNKSPHRDPAPRGPARFLPLPGLPPAPPEPPGILAPQPPDVGSSDPLSMVGPS
B17: FGF21 truncation mutant 1-167 (ligand)
chain: HPIPDSSPLLQFGGQVRQRYLYTDDAQQTEAHLEIREDGTVGGAADQSPESLLQLKALKPGVIQILGVKTSRFLCQRPDGALYGSLHFDPEACSFRELLLEDGYNVYQSEAHGLPLHLPGNKSPHRDPAPRGPARFLPLPGLPPAPPEPPGILAPQPPDVGSSDPLS
B18: FGF21 truncation mutant 1-178 (ligand)
chain: HPIPDSSPLLQFGGQVRQRYLYTDDAQQTEAHLEIREDGTVGGAADQSPESLLQLKALKPGVIQILGVKTSRFLCQRPDGALYGSLHFDPEACSFRELLLEDGYNVYQSEAHGLPLHLPGNKSPHRDPAPRGPARFLPLPGLPPAPPEPPGILAPQPPDVGSSDPLSMVGPSQGRSPS
B19: human FGF21 (ligand)
chain: HPIPDSSPLLQFGGQVRQRYLYTDDAQQTEAHLEIREDGTVGGAADQSPESLLQLKALKPGVIQILGVKTSRFLCQRPDGALYGSLHFDPEACSFRELLLEDGYNVYQSEAHGLPLHLPGNKSPHRDPAPRGPARFLPLPGLPPAPPEPPGILAPQPPDVGSSDPLSMVGPSQGRSPSYAS
B20: FGF21 truncation mutant 1-174 (ligand)
chain: HPIPDSSPLLQFGGQVRQRYLYTDDAQQTEAHLEIREDGTVGGAADQSPESLLQLKALKPGVIQILGVKTSRFLCQRPDGALYGSLHFDPEACSFRELLLEDGYNVYQSEAHGLPLHLPGNKSPHRDPAPRGPARFLPLPGLPPAPPEPPGILAPQPPDVGSSDPLSMVGPSQG

Key:
[1] = target: T1, β-Klotho overexpressed in recombinant human 293T kidney cells; assay: cell-based or functional assay
[2] = target: T1, β-Klotho overexpressed in recombinant …; assay: cell-based or functional assay; remark: listed apart in the source

| Binder | Efficacy (ELK-luciferase, relative to wild-type FGF21) [1] | EC50 (nM), ELK-luciferase [2] | Efficacy, ELK-luciferase [2] |
| --- | --- | --- | --- |
| B1 | 24.9% |  |  |
| B2 | 96.1% |  |  |
| B3 | 112% |  |  |
| B4 | 112% |  |  |
| B5 | 84.9% |  |  |
| B6 | 12.5% |  |  |
| B7 | 93.2% |  |  |
| B8 | 113% |  |  |
| B9 | 20% |  |  |
| B10 | 120% |  |  |
| B11 | 74.2% |  |  |
| B12 | 105% |  |  |
| B13 | 130% |  |  |
| B14 | 10% |  |  |
| B15 | 117% |  |  |
| B16 | 97.5% |  |  |
| B17 | 20% |  |  |
| B18 | 95% |  |  |
| B19 |  | 0.4 nM | 100% |
| B20 | 105% |  |  |
